# Data as given in publication PMC10185304, “Structure of Anabaena flos-aquae gas vesicles revealed by cryo-ET” (Structure (London, England : 1993), 2023).
# B1: GvpC from Anabaena flos-aquae (Ana) gas vesicles (natural protein, UniProt P09413 1-193, looked up)
# chain: MISLMAKIRQEHQSIAEKVAELSLETREFLSVTTAKRQEQAEKQAQELQAFYKDLQETSQQFLSETAQARIAQAEKQAQELLAFHKELQETSQQFLSATAQARIAQAEKQAQELLAFYQEVRETSQQFLSATAQARIAQAEKQAQELLAFHKELQETSQQFLSATADARTAQAKEQKESLLKFRQDLFVSIFG
# notes: Gas vesicle protein GvpC, Anabaena flos-aquae (Dolichospermum flos-aquae strain 1403/13F); five 33-residue repeats plus short N and C termini; in PDB 8GBS it is modelled only as a poly-Ala chain of one repeat's length; removed with 6 M urea to give stripped (AnaS) vesicles; also called Ana GvpC; accessory protein GvpC; source: endogenous, in native gas vesicles isolated from Anabaena flos-aquae …
# B2: GvpA from Anabaena flos-aquae (Ana) gas vesicles (natural protein, UniProt P10397 1-71, looked up)
# chain: MAVEKTNSSSSLAEVIDRILDKGIVIDAWVRVSLVGIELLAIEARIVIASVETYLKYAEAVGLTQSAAVPA
# notes: Gas vesicle structural protein GvpA (~8 kDa), Anabaena flos-aquae (Dolichospermum flos-aquae strain 1403/13F); polymerised into the helical filament that forms the gas vesicle shell; Native protein as it stands in purified gas vesicles; also called Ana GvpA; major structural protein; source: endogenous, in gas vesicles isolated from Anabaena flos-aquae by buoyancy purification
# Assays:
# Assay in all cases: cryo-EM structure; cryo-electron tomography with subtomogram averaging of the shell of native Ana gas vesicles (7.7 Å) and of urea-stripped AnaS gas vesicles (7.3 Å), 10 mM HEPES pH 7.5; GvpA homology model (from PDB 7R1C) and a poly-Ala helix for GvpC fitted as rigid bodies
# [1] = biological target: B2; conditions: both partners purified
# [2] = biological target: the molecule itself
# [3] = biological target: B1; conditions: both partners purified
stoichiometry N [1],binding result [3],Binder,binding result [2]
~0.05 GvpC per GvpA,,B1,
,binds,B2,binds
